In patent US20220324970A1 (Janssen / Centocor, published 2022):
Read-outs that look alike come from different tables or passages of the source.

Assays:
[1] = target: T1, human pIgR, full-length, on cells (human, UniProt P01833 19-764); test: cell-based or functional assay
[2] = target: T1, human pIgR, full-length, on cells; test: cell-based or functional assay; remark: listed apart in the source
[3] = target: T1, human pIgR, full-length, on cells; test: cell-based or functional assay; remark: listed apart in the source
[4] = target: T1, human pIgR, full-length, on cells; test: flow cytometry on MDCK-hpIgR cells
[5] = target: T2, human pIgR extracellular domain (ECD) (human, UniProt P01833 19-638); test: BLI; summary table, repeats Table 1
T2 construct: also called hpIgR ECD

[6] = target: T2, human pIgR extracellular domain (ECD); test: BLI; summary table, repeats Table 1; remark: listed apart in the source
[7] = target: T2, human pIgR extracellular domain (ECD); test: BLI (Octet), VHH-mono-Fc and hpIgR ectodomain
[8] = target: T2, human pIgR extracellular domain (ECD); test: ECL (MSD), hpIgR-ECD coated, anti-Fc detection
Protocol: To check whether VHH recognizes a buried epitope on pIgR, EC₅₀ values were measured for VHH-mono-Fc molecules binding to hpIgR-ECD protein by electrochemiluminescence using two different detection antibodies, an anti-Fc antibody and an anti-VHH antibody. pIgR ECD (10 μg/ml in PBS) was coated on high-bind MSD plates for 2 hours at RT with 1000 rpm, incubated with blocking buffer for 1 hour at RT, incubated with VHH-mono-Fc molecules (increasing concentrations in PBS) for 2 hours at RT with 1000 rpm, washed 3× with PBT, incubated with ruthenylated secondary antibody (2 μg/ml in PBS) for 1 hour at RT with 1000 rpm, washed 3× with PBT and read plates in 40 ul reading buffer using the MSD imager. EC50 was calculated by fitting log VHH concentration versus log ECLU in Prism (Graphpad). The increase in EC₅₀ (>50-fold) due to anti-VHH detection was used as a measure to determine whether VHH recognized buried epitope on pIgR.

[9] = target: T2, human pIgR extracellular domain (ECD); test: ECL (MSD), hpIgR-ECD coated, anti-VHH detection
[10] = target: T2, human pIgR extracellular domain (ECD); test: ECL (MSD), anti-VHH detection against anti-Fc detection
[11] = target: T2, human pIgR extracellular domain (ECD); test: BLI (Octet RED384), 1:1 fit, 25 C, PBS
[12] = target: T3, human pIgR extracellular domain 4-domain 5 (D4-D5) (human, UniProt P01833 350-565); test: BLI (Octet RED384), 1:1 fit, 25 C, PBS
T3 construct: HIS-tagged construct made in HEK293 cells; also called hpIgR domains 4-5
T3 chain: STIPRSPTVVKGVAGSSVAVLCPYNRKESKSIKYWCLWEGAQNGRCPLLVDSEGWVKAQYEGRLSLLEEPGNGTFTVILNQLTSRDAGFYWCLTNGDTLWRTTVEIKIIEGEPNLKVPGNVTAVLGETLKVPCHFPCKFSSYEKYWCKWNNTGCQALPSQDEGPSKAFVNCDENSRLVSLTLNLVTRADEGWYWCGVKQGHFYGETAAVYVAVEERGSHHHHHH

[13] = target: T1, human pIgR, full-length, on cells; test: flow cytometry on MDCK-hpIgR cells; summary table, repeats Table 1
[14] = target: T1, human pIgR, full-length, on cells; test: as above; remark: listed apart in the source
[15] = target: T2, human pIgR extracellular domain (ECD); test: BLI (Octet RED384), 1:1 fit, 25 C, PBS; column kdis
[16] = target: T3, human pIgR extracellular domain …; test: as above
hpIgR_D3 = target: T4, hpIgR_D3; test: ECL (MSD) heat map, HIS-tagged construct captured via anti-HIS, anti-human-Fc detection;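 also: VHH-mono-Fc molecules tested at 100 µg/ml for 2 h on captured His-tagged pIgR constructs (10 µg/ml), read-out as electrochemiluminescence units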
T4 construct: HIS-tagged construct from HEK293 cells; also called human pIgR extracellular domain 3 (D3); hD3
Protocol: (§1) A meso-scale discovery (MSD) platform was used for conducting epitope mapping and epitope burial studies. To test the binding of VHH-mono-Fc molecules to purified pIgR protein constructs, Streptavidin MSD plates were coated with a biotinylated anti-HIS antibody (2 μg/ml in PBS) for 1 hour at RT with 1000 rpm, washed 3× with PBT (PBS+0.1% Tween-20), incubated with blocking buffer for 1 hour at RT, incubated with His-tagged pIgR proteins (10 μg/ml in PBS) for 2 hours at RT with 1000 rpm, washed 3× with PBT, incubated with VHH-mono-Fc molecules (100 μg/ml in PBS) for 2 hours at RT with 1000 rpm, washed 3× with PBT, incubated with ruthenylated-anti-human-Fc antibody (2 μg/ml in PBS) for 1 hour at RT with 1000 rpm, washed 3× with PBT and read plates in 40 ul reading buffer using the MSD imager. ECLU values were plotted as a heatmap.
(§2) Binding of VHH-mFc molecules were tested to immobilized pIgR constructs by the electrochemiluminescence method.
T4 HIS-tagged domain construct: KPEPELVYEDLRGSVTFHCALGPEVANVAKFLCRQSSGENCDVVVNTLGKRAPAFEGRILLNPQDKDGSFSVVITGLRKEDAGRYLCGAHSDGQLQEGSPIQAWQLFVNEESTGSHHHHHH

[17] = target: T5, human pIgR extracellular domain 1 (D1) (human, UniProt P01833 19-127); test: as above
T5 construct: HIS-tagged construct made in HEK293 cells; also called hpIgR domain-1
Protocol: as §1, §2

[18] = target: T6, human pIgR extracellular domain 2 (D2) (human, UniProt P01833 128-242); test: as above
T6 construct: HIS-tagged construct made in HEK293 cells; also called hpIgR domain 2
Protocol: as §1, §2

[19] = target: T7, human pIgR extracellular domain 5 (D5) (human, UniProt P01833 460-565); test: as above
T7 construct: HIS-tagged construct made in HEK293 cells; also called hpIgR domain 5
Protocol: as §1, §2

hpIgR_D2-D3 [20] = target: T8, hpIgR_D2-D3; test: as above
T8 construct: HIS-tagged construct from HEK293 cells; also called human pIgR extracellular domain 2-domain 3 (D2-D3); hD2-D3
Protocol: (§3) The Electrochemiluminescence assay was performed as follows. A meso-scale discovery (MSD) platform was used for conducting epitope mapping and epitope burial studies. To test the binding of VHH-mono-Fc molecules to purified pIgR protein constructs, Streptavidin MSD plates were coated with a biotinylated anti-HIS antibody (2 μg/ml in PBS) for 1 hour at RT with 1000 rpm, washed 3× with PBT (PBS+0.1% Tween-20), incubated with blocking buffer for 1 hour at RT, incubated with His-tagged pIgR proteins (10 μg/ml in PBS) for 2 hours at RT with 1000 rpm, washed 3× with PBT, incubated with VHH-mono-Fc molecules (100 μg/ml in PBS) for 2 hours at RT with 1000 rpm, washed 3× with PBT, incubated with ruthenylated-anti-human-Fc antibody (2 μg/ml in PBS) for 1 hour at RT with 1000 rpm, washed 3× with PBT and read plates in 40 ul reading buffer using the MSD imager. ECLU values were plotted as a heatmap.
T8 HIS-tagged domain construct: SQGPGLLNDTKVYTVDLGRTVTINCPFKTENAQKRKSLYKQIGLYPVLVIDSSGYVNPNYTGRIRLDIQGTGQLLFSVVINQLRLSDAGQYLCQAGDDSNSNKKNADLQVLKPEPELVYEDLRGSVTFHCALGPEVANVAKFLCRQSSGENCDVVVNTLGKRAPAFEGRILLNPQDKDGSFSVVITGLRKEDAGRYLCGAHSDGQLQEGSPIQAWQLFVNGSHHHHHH

[21] = target: T9, human pIgR extracellular domain 1-domain 2 (D1-D2) (human, UniProt P01833 19-240); test: as above
T9 construct: HIS-tagged construct made in HEK293 cells
Protocol: as §3

hpIgR_D2-D3 [22] = target: T8, hpIgR_D2-D3; test: BLI (Octet RED384), 1:1 fit, 25 C, PBS
Protocol: (§4) Bio-layer Interferometry was performed as follows. […] Data were collected with Octet Data Acquisition version 7.1.0.87 (ForteBio) and analyzed using Octet Data Analysis version 7.1 (ForteBio). To measure binding kinetics between VHH-mono-Fc molecules and HIS-tagged pIgR proteins, VHH-mono-Fc was immobilized on amine-reactive generation-2 (ARG2) biosensors according to manufacturer's instructions and increasing concentrations of pIgR proteins were exposed to sensor-immobilized VHH. In some cases, HIS-tagged pIgR proteins were immobilized on anti-HIS biosensors and exposed to increasing concentrations of VHH-mono-Fc molecules. Association and dissociation rates were measured by the shift in wavelength (nm). […] All reactions were performed at 25° C. in PBS.

[23] = target: T2, human pIgR extracellular domain (ECD); test: BLI (Octet RED384), 1:1 fit, 25 C, PBS; remark: listed apart in the source
Protocol: as §4

[24] = target: T9, human pIgR extracellular domain …; test: BLI (Octet RED384), 1:1 fit, 25 C, PBS
Protocol: as §4

[25] = target: T6, human pIgR extracellular domain 2 (D2); test: BLI (Octet RED384), 1:1 fit, 25 C, PBS
Protocol: as §4

hpIgR_D2-D3 [26] = target: T8, hpIgR_D2-D3; test: BLI (Octet RED384), 1:1 fit, 25 C, PBS; column kdis
[27] = target: T2, human pIgR extracellular domain (ECD); test: as above; remark: listed apart in the source
[28] = target: T9, human pIgR extracellular domain …; test: as above
[29] = target: T6, human pIgR extracellular domain 2 (D2); test: as above
[30] = target: T3, human pIgR extracellular domain …; test: ECL (MSD) heat map, HIS-tagged construct captured via anti-HIS, anti-human-Fc detection
Protocol: as §3

T1 sequence (P01833 19-764): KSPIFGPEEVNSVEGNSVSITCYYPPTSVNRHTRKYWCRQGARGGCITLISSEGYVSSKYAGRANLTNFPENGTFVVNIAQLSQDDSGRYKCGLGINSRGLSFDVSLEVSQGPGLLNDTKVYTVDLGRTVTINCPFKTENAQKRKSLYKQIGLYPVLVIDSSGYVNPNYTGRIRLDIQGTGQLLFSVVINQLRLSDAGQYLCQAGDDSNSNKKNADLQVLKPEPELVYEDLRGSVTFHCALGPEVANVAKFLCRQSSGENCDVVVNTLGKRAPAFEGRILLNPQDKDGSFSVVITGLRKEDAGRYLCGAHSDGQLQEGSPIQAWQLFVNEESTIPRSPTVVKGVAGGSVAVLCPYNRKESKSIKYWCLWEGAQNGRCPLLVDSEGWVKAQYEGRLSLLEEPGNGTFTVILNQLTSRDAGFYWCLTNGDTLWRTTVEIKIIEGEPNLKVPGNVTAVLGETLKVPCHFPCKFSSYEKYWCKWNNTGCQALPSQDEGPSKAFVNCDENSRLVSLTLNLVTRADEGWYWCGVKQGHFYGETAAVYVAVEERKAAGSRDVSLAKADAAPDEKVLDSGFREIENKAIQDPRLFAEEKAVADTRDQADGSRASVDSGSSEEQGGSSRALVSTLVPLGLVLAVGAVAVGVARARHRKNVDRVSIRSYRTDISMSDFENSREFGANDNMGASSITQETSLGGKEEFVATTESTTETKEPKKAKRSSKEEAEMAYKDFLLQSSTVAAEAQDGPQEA
T2 sequence (P01833 other isoform, or with tags, fused parts or gaps): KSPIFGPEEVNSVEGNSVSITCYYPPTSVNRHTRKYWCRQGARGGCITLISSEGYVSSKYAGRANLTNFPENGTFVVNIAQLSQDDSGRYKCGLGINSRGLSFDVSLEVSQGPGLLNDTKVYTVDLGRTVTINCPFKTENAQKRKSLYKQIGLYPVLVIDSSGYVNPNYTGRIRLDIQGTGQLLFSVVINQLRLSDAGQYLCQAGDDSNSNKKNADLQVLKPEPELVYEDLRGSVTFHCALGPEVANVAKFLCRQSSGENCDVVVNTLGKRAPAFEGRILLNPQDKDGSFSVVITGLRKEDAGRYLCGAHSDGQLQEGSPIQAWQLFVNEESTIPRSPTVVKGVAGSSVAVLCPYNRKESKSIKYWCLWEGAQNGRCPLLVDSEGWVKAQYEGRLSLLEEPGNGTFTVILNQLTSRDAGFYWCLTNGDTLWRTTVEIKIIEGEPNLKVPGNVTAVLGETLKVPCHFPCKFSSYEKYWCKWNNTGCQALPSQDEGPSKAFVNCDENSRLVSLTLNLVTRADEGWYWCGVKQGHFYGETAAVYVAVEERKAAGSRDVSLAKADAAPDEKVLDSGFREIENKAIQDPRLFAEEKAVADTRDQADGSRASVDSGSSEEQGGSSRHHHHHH
T9 sequence (P01833 other isoform, or with tags, fused parts or gaps limits assumed): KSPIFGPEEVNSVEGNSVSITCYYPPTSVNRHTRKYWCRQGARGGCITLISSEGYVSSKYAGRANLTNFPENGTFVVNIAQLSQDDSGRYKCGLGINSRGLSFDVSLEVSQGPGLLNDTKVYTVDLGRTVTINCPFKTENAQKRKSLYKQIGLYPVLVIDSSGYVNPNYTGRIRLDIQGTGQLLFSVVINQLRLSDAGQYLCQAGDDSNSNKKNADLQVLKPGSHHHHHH
T5 sequence (P01833 other isoform, or with tags, fused parts or gaps limits assumed): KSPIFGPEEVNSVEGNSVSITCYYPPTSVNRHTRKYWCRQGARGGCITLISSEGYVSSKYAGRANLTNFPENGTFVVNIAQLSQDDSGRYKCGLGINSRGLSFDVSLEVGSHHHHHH

B1: VHH9-linker-mono-Fc protein (Fc fusion)
chain: QVQLVESGGGLVQAGGSLRLSCAVSGRTFSTYRMGWFRQAPGKERSFVAAISWSGGSTTYADPVKGRFTISRDNAKNTVYLRMNSLKPEDTAVYYCNDQRGYWGQGTLVTVSSEPKTPKPQPQPQLQPQPNPTTESKSPKSPAPELLGGPSVFLFPPKPKDTLMISRTPEVTCVVVDVSHEDPEVKFNWYVDGVEVHNAKTKPREEQYNSTYRVVSVLTVLHQDWLNGKEYKCKVSNKALPAPIEKTISKAKGQPREPQVYTKPPSREEMTKNQVSLSCLVKGFYPSDIAVEWESNGQPENNYKTTVPVLDSDGSFRLASYLTVDKSRWQQGNVFSCSVMHEALHNHYTQKSLSLSPGK
notes: made in CHO cells; also called VHH9-mono-Fc; hpIgR_221
[1]
  increase in their apical concentration relative to control VHH (MDCK-hpIgR monolayers): > 10 fold
[2]
  Transcytosis (Fold Incr.): 22.4 fold
[3]
  For. Trans. (Fold Incr.): 24.2 fold
  Rev. Trans (Fold Incr.): 6.6 fold
[4]
  EC50: 0.0015 µM
[5]
  Kd: 0.004 µM
[6]
  Kd: 0.004 µM
[7]
  Kd: 0.004 µM
[8]
  EC50: 0.0004 µM
[9]
  EC50: 0.0008 µM
[10]
  Fold change in EC50: 1.8 fold
[11]
  Kd: 0.0196 µM
  kon: 79300 M⁻¹ s⁻¹
[12]
  Kd: 0.0126 µM
  kon: 133000 M⁻¹ s⁻¹
[13]
  EC50: 0.0015 µM
[14]
  EC50: 0.0015 µM
[15]
  koff: 0.00156 s⁻¹
[16]
  koff: 0.00169 s⁻¹
hpIgR_D3
  binding result: no binding (tested: 100 ug/ml (single concentration))
[17]
  binding result: no binding (tested: 100 ug/ml (single concentration))
[18]
  binding result: no binding (tested: 100 ug/ml (single concentration))
[19]
  binding result: no binding (tested: 100 ug/ml (single concentration))
hpIgR_D2-D3 [20]
  binding result: no binding (tested: 100 ug/ml (single concentration))
[21]
  binding result: no binding (tested: 100 ug/ml (single concentration))

B2: VHH4-linker-mono-Fc protein (Fc fusion)
chain: EVQVVESGGGLVQAGGSLRLSCAVSGTSVSSNAMGWYRQAPGKQREWVGFIDRIATTTIATSVKGRFAITRDNAKNTVYLQMSGLKPEDTAVYYCNHPLTARWGQGTQVTVSSEPKTPKPQPQPQLQPQPNPTTESKSPKSPAPELLGGPSVFLFPPKPKDTLMISRTPEVTCVVVDVSHEDPEVKFNWYVDGVEVHNAKTKPREEQYNSTYRVVSVLTVLHQDWLNGKEYKCKVSNKALPAPIEKTISKAKGQPREPQVYTKPPSREEMTKNQVSLSCLVKGFYPSDIAVEWESNGQPENNYKTTVPVLDSDGSFRLASYLTVDKSRWQQGNVFSCSVMHEALHNHYTQKSLSLSPGK
notes: also called VHH4-mono-Fc; hpIgR_073
[1]
  increase in their apical concentration relative to control VHH (MDCK-hpIgR monolayers): > 10 fold
[2]
  Transcytosis (Fold Incr.): 12.6 fold
[3]
  For. Trans. (Fold Incr.): 15.1 fold
  Rev. Trans (Fold Incr.): 8 fold
[4]
  EC50: 0.0329 µM
[5]
  Kd: 0.022 µM
[6]
  Kd: 0.022 µM
[7]
  Kd: 0.022 µM
[8]
  EC50: 0.0011 µM
[9]
  EC50: 0.206 µM
[10]
  Fold change in EC50: 180 fold
hpIgR_D2-D3 [22]
  Kd: 0.0861 µM
  kon: 14000 M⁻¹ s⁻¹
[23]
  Kd: 0.076 µM
  kon: 14400 M⁻¹ s⁻¹
[24]
  Kd: 0.0773 µM
  kon: 19200 M⁻¹ s⁻¹
[25]
  Kd: 0.0838 µM
  kon: 19100 M⁻¹ s⁻¹
[13]
  EC50: 0.0329 µM
[14]
  EC50: 0.0329 µM
hpIgR_D2-D3 [26]
  koff: 0.0012 s⁻¹
[27]
  koff: 0.0011 s⁻¹
[28]
  koff: 0.00149 s⁻¹
[29]
  koff: 0.0016 s⁻¹
hpIgR_D3
  binding result: no binding (tested: 100 ug/ml (single concentration))
[17]
  binding result: no binding (tested: 100 ug/ml (single concentration))
[19]
  binding result: no binding (tested: 100 ug/ml (single concentration))
[30]
  binding result: no binding (tested: 100 ug/ml (single concentration))
